Values of other authors in patent US20190298804A1, “ACTIVATION OF THE ENDOGENOUS ILEAL BRAKE HORMONE PATHWAY FOR ORGAN REGENERATION AND RELATED COMPOSITIONS, METHODS OF TREATMENT, DIAGNOSTICS, AND REGULATORY SYSTEMS” (VOLANT HOLDINGS GMBH, priority 2013, published 2019).

Test system: MIN-6 cells
Settings: immunoprecipitation and western blotting

B1: BTC: member of the epidermal growth factor family (protein, UniProt P35070 32-111, looked up)
Betacellulin: DGNSTRSPETNGLLCGDPEENCAATTTQSKRKGHFSRCPKQYKHYCIKGRCRFVVAEQTPSCVCDEGYIGARCERVDLFY
modifications: Betacellulin
notes: member of the epidermal growth factor family
phosphorylation of EGF receptors: induced phosphorylation of only ErbB-1 and ErbB-2
